Measured values taken from patent publication US20140140975A1.

Legend:
[1] = biological target: Fas death receptor (mouse) (UniProt P25446); test: cell-based or functional assay
[2] = biological target: recombinant human GRX1 (UniProt P35754)
Sequence of UniProt P35754 (P35754 whole entry): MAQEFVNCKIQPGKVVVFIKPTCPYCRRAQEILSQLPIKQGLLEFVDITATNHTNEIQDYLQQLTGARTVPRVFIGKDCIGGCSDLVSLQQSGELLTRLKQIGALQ

Sequence of UniProt P25446 (P25446 22-327): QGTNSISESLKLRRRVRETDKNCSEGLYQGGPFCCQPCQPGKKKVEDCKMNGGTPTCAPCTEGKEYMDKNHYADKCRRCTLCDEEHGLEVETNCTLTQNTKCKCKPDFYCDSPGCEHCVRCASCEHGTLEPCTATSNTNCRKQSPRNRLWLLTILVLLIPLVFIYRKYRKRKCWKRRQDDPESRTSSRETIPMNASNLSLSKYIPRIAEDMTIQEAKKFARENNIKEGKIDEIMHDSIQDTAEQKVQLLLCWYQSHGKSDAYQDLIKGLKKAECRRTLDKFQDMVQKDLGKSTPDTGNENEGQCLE

| Substance | catalytic activity of GRX1 in lung epithelial cells [1] [% decrease] | cleavage of GRX1 (Western Blotting) [2] |
| --- | --- | --- |
| Fas Ligand | 50 |  |
| recombinant Caspase 3 |  | Treatment of recombinant human GRX1 with recombinant Caspase 8 or 3 results in cleavage of GRX1 |
| recombinant Caspase 8 |  | Treatment of recombinant human GRX1 with recombinant Caspase 8 or 3 results in cleavage of GRX1 |
